Assay results taken from the DeepSol protein solubility set.

Experiment: soluble on expression in E. coli; label from the status in PepcDB or PDB records

Sequence	soluble on expression in E. coli
MGSDKIHHHHHHMLSNNCSILLIDDDADVLDAYTQLLEQAGYHVSACNNPFDAREQVPKDWPGIVLSDVCMPGCSGIDLMTLFHQDDDLLPILLITGHGDVPMAVEAVKKGAWDFLQKPIDPGKLLTLVDAALRQRQSVIARRQYCQQKLQVELIGRSQWTVRYRQRLQQLAETDIAVWLYGEPGTGRMTGARYLHQLGRHAEGPFIACELTPANAHTLNELIAQAQGGTLVLSHPEHLTHEQQHQLVQLQSHEKRPFRLIGIGSASLVELAASSQIVAELYYCFAMTQIGCQPLSKRPDDIEPLFHHYLQKTCQRLNHPVPEVDAGLLKGMMRRVWPNNVRELANAAELFAVGVLPLAETVNPLMHIGEPTPLDQRVEDVERQIITEALNIHQGRINEVAEYLLIPRKKLYLRMKKYGLNKEHYKGV	not soluble
MGSDKIHHHHHHMGVMKTPGVYIVEKNAFPNSVVEVATAVPAFIGFTQKAINGNKSLLNKPWRITSMAEFRRYYGEAPEPEFEIAEKPADSLEDAAIVMGDKSYVISQSNTKYLLYYSMMLFFQNGGGPCYIVSVGNYTNDVEAAKLLAGIPTLLKEQEPTMLAIPEAILLAEDDCISVQQASLAHCGGVMRNRVAILDVWNGHLDRQDPSGDCIESFRSKLGINYLDFSSAYYPWLHTTIVQDSDLSFKNIANTDVLIGLLKEEVTASFTDLDGLTDDQLASPSNKLRVAKRDQMLTEVDSLATVAGDAQIVLLNKTLSSMSPLYMSILLDIKGKLNLLPPSACMAGIYTMVDNARGVWKAPANVSLNAVVSPAVNISHDEQEDLNVTTQGKSINAIRTFIGEGTLVWGARTLDGNSLDWRYISVRRTMIMLEESIRLAAKAYVFEPNTANTWTTLNSMITNFLTGIWKRGGLAGSVPADAFSVSVGLGSTMTSEDILEGILRITVLVAVTRPAEFIEITFQQQMQKS	not soluble
MGSDKIHHHHHHMKIAIVGSGNGAVTAAVDMVDKGHDVRLYCRNESISKFDVALEKGGFDFYNEGEEKFIEFTDISDDMEYVLDGADIVQVIIPSSFIEYYAKVMSKFVTNDHLIFFNIAASMGSIRFMNVLEDRHIDVHPHFAEANTLTYGTRVDFNNAKVDLSLNVRRVFFSTFDRSELNESYEKVSKIYDYLVKEESLLKTNLENGNPEVHPGPTLLNVGRIDYSEEFSLYKEGITKHTVRLLHAIEIERLNLGRKLGFELSTAKESRIQRGYLERKDEDEPLNRLFNTSPVFSQIPGPNHVENRYLTEDIAYGLVLWSSLGRVIDVPTPNIDAVIMIASTILERDFFEEGLTIEELGLDKLGLE	not soluble
MSLLRKDATEERLTGRYFTPKDLASYIIDWVIQDNNINKILEPSCGNGVFLECLGERRLEDGRNITAIEIDEDVSFEASMQIDNSLRFNNCYDYQRALRNDGDIVNNGIVIINDDFYKVYEQELQGQRFQAIVGNPPYIRYQYLSEQQREEQSKILIRNNMRPNKLINAWVSFVVACAEILDGNGKMGLVIPAELLQVAYAEDLRRFIMRTFQRITIVTFRELVFPNVQQEVVLLLVEKEILHTREGHHHHHH	soluble
MGSDKIHHHHHHMAPLLFRQILDLEAEAIQRAAERADAEAFANATQLIANCSGKVVLSGVGKSGIIARKITATLLSIGTLSAFLHPCDALHGDLGIVTEQDVVVMLSNSGETDELLAMLPHLQRRQVPIIAIVGNMRSTLARVAAAVLDASVDREACPLNLAPTASTTVALAIGDALAAQVMDYRSVTSEQFAFNHPAGRLGKRLTLKVVDVMHQGEELPLLPPEARFVEVVTAISRGGLGAVPIVEADGRLLGLITDGDLRRLLEQTSPAKLDQITAAEFMTPQPIAVEGDLLAYDALHLMENRPSQISVLPVVDAAQRCLGLVRIHDLIRSGI	not soluble
MGSDKIHHHHHHMWMNGFARWMDKLKVLSSEAGSKACWGYDACPAGDGIIASIDGYSMDSSRLPWMSLGDWGWKSVVAAASDVAASGGAPFHVMYSLGLDSVERAVDVARGVGEAAVWMGATVGKSDFNTSKSPWIDVAVLGKAEKPLGRFGAKPGMTLVQVGASGYGLLSHLTLQGRLSRDDLPGPVVEYTRRPKPPLRIGPELSSCEAAASIDNSDGLGASLHLLGVESGVSVVIDDILVDRHVEKVLDELGLEKWAVLQSWEDYNIVAVGGDGSIDCILRWCRRLNIECATVGYTSSDGAGRVLIEGGRREFRVSGWTWL	not soluble
MPRPGKDSYDEQKPPYSYIWLTYMAIQDSDDKMLPLTEIYKYIMDRFPFYRKNTQRWQNSLRHNLSFNDCFIKIPRRADRPGKGSYWAVHPNASGMFENGSCLRRRKRFRARGGQDDDDDDFHHPAPSKISRKNPLPLLPEPPITPPLLSSLFPNLPPSLPNFCLFPPGMDPTKSLLLNPLSLLLMPHFLKNSSNFESSTPHSETSEISGSGSSSSKTPTPEAGFNSSFSIESILSS	not soluble
ALHEATRDLLGADSPSTVAAEVGAAIESILEFRINVIRVHRDGQLQPVHVNDKAEELLAERPTYDVGEGFPGEAFEEQQASVYTDIRDHDGGTALEPVVSWLYVPISEYGIISVGQTDPDAFDETDLNLVQIIASNAEVALQRLQKERELQRENDRLEQFASTVS	not soluble
MGSDKIHHHHHHMNETSSYTIEEVAGLLKVSKLTVYDLIKKGVLPAYRVGRQMRVDEEDLKQYKTNMRMSQPIAAKEAPKQVQEAEPDGRPNVMISGQDISMDILSKHLENAIQETPLRKYKGSLNSLIDMYQGKCDIVSLHLYDAETGQYNAPYVKRILTGEPFCLINVVLRKAGLYVQKGNPKNIQGWKDLKRADIRIINREKGSGARVLLDEQLGLLGVNPADVVGYGDIVTDHYAAASQVSSGQADAGIGAQHAAHMGSVDFIPLIDEQYDIVVLKKNEQLLKAVKEILNSEDYKANLSHLNGYETKLTGKVILET	not soluble
MAHHHHHHMYRAHSKDINRNKGFHPLTYRNLRRVEQLKEEAELNKQKAEERQKELQRDQEERRYDELVLANSADSLSGELARYRQTRSIFAAEYEADAKAAKDASVASLPSPQVSKPEVQLKTSAGASFPVNSFLSKFKKEESYGSTCVMVKAEARDNTAAAASSAVASAEAETPVRKRPRDDATSNSPSSTHNGSGYGEGATKRGGDGGESAPATGFVTSAEAAQLRKELNLAQKQRHDPLMRVKEYQNSCVAAAARQLDHEQATGAVAKREDDQDKLQSRIRELLALKKKKK	not soluble
MSLNSQEMVLGNAWLVLADRVIEHGWVAIADGVIAEVGEGDAPNGAKDMHGDLVMPGLVELHTDHLEAHYTPRPKVQWNPVAAVVSYDGQLATCGITTVLDSLRVWREEGAEEVDGQAIVLAGAISTARDAQLLRADHFLHLRCEIPMPNVVAEAKELIDRPDIRLMSLMDHTPGQRQFRDEEKLRDYYRGKGAGMTDAELDVMFARRVYCKENYADANMRAIVELAHRYEIPLASHDDTTPENVADAIRDRVAVAEFPTTLEAARELHQAGIDILMGAPNVVRGGSHSGNIAAIDLAHEGLLDILSSDYIPSSLLIAALQLPMRAPGIDLAAAIRTVTKAPAEAVGLNDRGEISKGKRADLIRVHVAHDVPAVRSVWREGQRVAEGHHHHHH	not soluble
MAHHHHHHMFTLCKGYSEDEDEEEVKDIIDNLKEQKKSFEEKINYYKLKGNIERSHITIYTNLGEFQVELYWYHSPKTCLNFYTLCTMGYYDNTIFHRVIPDYIIQGGDPTGTGKGGKSIYGEYFEDEINTELKHTGAGILSMSNNGPNTNGSQFFITLCPLPHLDGKHTIFARVSKNMTCIENIASVQTTATNKPIFDVKILRTSTAVNVD	soluble
MSLNTGHASLAQWGMSCLQWQPEWSVLDIGCGGGANLLQILQRCPQGKAYGIDISPESVTFARKKNKKYLGTRCFIEQGGVHRLPYPDYAFDAVTAFETVYFWGNLQHAFTEVARVLKPGGSFLICCEISDPANKAWTGLVEGMEIHSCDELKAILSKSGFTDTAIFRTKKEELCLVSHRQTVRLEGHHHHHH	soluble
EVPDYLCCNITLEIFRDPVISPSGVTYERAAILEHLKKVGKFDPITREKIDPANLVPNLAIKEAVAAYLEKHVWAYKMGC	soluble
MGSDKIHHHHHHMAKEKTIYVCRSCGTKYAKWQGNCNACGEWNCIDEEKVPAPASGKHAAKSFMPREQDNRPRLLQDVESGDEERIRLGDEEFDRVLGGGIVKGAFVLLGGEPGIGKSTLILQTVLRLPQLRTLYVSGEESARQLKMRAERLGQAMNGCYVYCETNIERILSRAEELTPDLLVIDSIQTVYTEEMESSAGSVGQIRECAALLLKYCKTTGIPVIVIGHITKEGSIAGPKVLEHIVDTVLLFDGDKHHLYRILRGQKNRYGSTSELGIYEMRQDGLRGVENPSEHLITRNREDLSGIAIAVAMEGIRPILIEAQALVSSAIYANPQRSATGFDIRRMNMLLAVLEKRAGFKLIQKDVFLNIAGGIKIADPATDLAVISAVLASSLDIVIPPAVCMTGEVGLSGEIRPVSRIEQRITEARRIGFKEILVPADNFRQEDAGRFGIRLVPVRKVEEAFRHLFSKGRE	not soluble
MGEENQPNYTISQENWSLHRKGYDDQQRHQEKVQEAIKNNLPDLVTEESIVMSNGKDVVKIPIRSLDEYKIRYNYDKNKHVGQGNGDSKVGDVVARDGSGGQKQKGPGKGQGAGDAAGEDYYEAEVSILELEQAFFRELELPNLKRKEMDENRIEHVEFNDIRKTGLWGNIDKKRTMISAYKRNAMGGKASFHPIHQEDLKFRTWNEVLKPDSKAVVLAMMDTSGSMGIWEKYMARSFFFWMTRFLRTKYETVDIEFIAHHTEAKVVTEEEFFSKGESGGTICSSVYKKALELIDNKYSPDRYNIYPFHFSDGDNLTSDNARCVKLVEELMKKCNMFGYGEVNQYNRHSTLMSAYKNIKDENFRYYILKQKADVFHAMKSFFREESGEKMALEHHHHHH	soluble
MWRAKKPTLERRSTDGRRSSIVDWINGLSDNNNYKSDHWVEKHDEGCERMTRNGSVCAVEESEPDVPTQHREVLLTKLKIEIKNIMAEHGAKKYLNLNSPYVTSLCIAVDACIMDGLRRRLLTLFNSPSSMSLLQIIAKSNGPAQQVLDQTREIEELRTSAIPVHLIWIREALYLKSLSTIINHFIDSKSVRRYYDNSALLLDPVKGRLVATLMMAPCMVTYRRMSNRIEQEATAEELVEGATRGSTSTVPSRPPLSKIKKIHFLDNPSSYMSLQKFYDGNLSLKWVPNQLMHASSQPSSGHSNNGEFTNIWKNTINIEMQDIIYIHLHQKDEISPTCLTFVNCEGVQSAPFQLPAGQHSIAFLSSLETGLAPLLRLDPPLWVGTTKEKILPRLRKRSTAVANPAMLDYVFRLVRTSGVEPAPEDIEDPLAPTSHSPPIHDNCVSLPNSPYIVDNVDSIVNFQIGTACQSMRNQIMARAFYGWLTYVRHLRTIRTHLLHLVDTKTLICDDDCDPVDEKFWKQARAEPTEENEKEFLKRVYWRGIEGINTKEVRRMAWPYLLGLFEWNESPESRLEQFTSQYWQDIEEWRVLEAEVRRRDEEAFRAARARKAASPVREESCDVFEDPNEPTCSQHYDRENLITLFRANLHRIDKDVERCDRNLMFFSNKDNLESLRRVMYTYVRRNLEEGYTQGMCDLLAPLLVTFEDEALTLECFSLLMLRQRGKFPQRPGMSKCLLNLRSLIQVVDPQIYALISDIDYAQALSFAFRWFLLDFKRELSYECTYKVWEVIWAAQRLRITDDFAIFFGLATITNYHDVLITNNFDYTDMIKFFNEMAERHDCSRLLSSARTHVKCLQNLVQHLK	soluble
MAGDPMKIMIFICGEGLGHTSRCLALGKELLAAGHEIEFGAYGYSRDLVEKTGYRIHEIPSEIKLVGKAGGFDLSGSIEATLKNARILGGPKVLKLIKDFKPDVVVSDSYYLGTLAAMLLNIPVYLIINQSNMEDFFKNRGVPIRLLGDLTKKFYREVFEKTDKIIIPDYPLPYTVCRKNLNFSPGLWEKLEHHHHHH	not soluble
